Reference: US20130115170A1
Read-outs that look alike come from different tables or passages of the source.

T1: cholera toxin B subunit (Vibrio cholerae), P01556
T1 chain: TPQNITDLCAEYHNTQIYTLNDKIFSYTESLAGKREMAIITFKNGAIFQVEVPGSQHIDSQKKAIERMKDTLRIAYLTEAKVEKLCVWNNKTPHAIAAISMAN


Columns and labels:
[1] = biological target: T1, cholera toxin B subunit (Vibrio …); test: solid-phase ELISA, competition: peptide inhibits CTB binding to GM1
[2] = biological target: T1, cholera toxin B subunit (Vibrio …); test: solid-phase ELISA, inhibition of CTB binding to GM1, peptide at its IC50 for GM1
[3] = biological target: T1, cholera toxin B subunit (Vibrio …); test: solid-phase ELISA, inhibition of CTB binding to Lipid A, peptide at 100 pmol/mL
[4] = biological target: T1, cholera toxin B subunit (Vibrio …); test: solid-phase ELISA, inhibition of CTB binding to F-GM1, peptide at 100 pmol/mL
[5] = biological target: T1, cholera toxin B subunit (Vibrio …)
[6] = biological target: T1, cholera toxin B subunit (Vibrio …); test: solid-phase ELISA, inhibition of CTB binding to LOSGM1, peptide at 100 pmol/mL
[7] = biological target: T1, cholera toxin B subunit (Vibrio …); test: solid-phase ELISA, inhibition of CTB binding to GD1b, peptide at 100 pmol/mL

Binder | IC50 [1] | inhibition percent [2] | inhibition percent [3] | inhibition percent [4] | inhibition percent [5] | inhibition percent [6] | inhibition percent [7]
VSWKTWFPNLAV (modifications not checked) [PGM1-1] | 38 nM | 50% |  |  |  |  | 
QINTAKWWKTHF (modifications not checked) [PGM1-5] | 34.4 nM | 50% |  |  |  |  | 
YSPFHKWFPSMH (modifications not checked) [PGM1-2] | 46.1 nM | 50% |  |  |  |  | 
DASKALRSSGMP (modifications not checked) [PGM1-6] |  |  | -0% | -0% | -0% | -0% | -0%
FPAWFTKLYPRT (modifications not checked) [PGM1-4] | 77.4 nM | 50% |  |  |  |  | 
IPQVWRDWFKLP (modifications not checked) [PGM1-3] | 9.6 nM | 50% |  |  |  |  | 
